Measured values: FireProtDB (doi:10.1110/ps.8.12.2645)

Settings: Saccharomyces cerevisiae (strain ATCC 204508 / S288c), pH 6, Thermal, DSC, Sodium phosphate 0.1 M, reversible: yes

Chain of Cytochrome c isoform 1 L91A, P00044 (P00044 whole entry L91A, canonical isoform): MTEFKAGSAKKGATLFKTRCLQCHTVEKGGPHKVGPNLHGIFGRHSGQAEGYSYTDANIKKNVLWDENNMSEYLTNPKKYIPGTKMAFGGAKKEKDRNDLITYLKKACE
Chain of Cytochrome c isoform 1 wild type, P00044 (P00044 whole entry, canonical isoform): as the sequence (P00044 whole entry L91A, canonical isoform) above, with A91L counted along it
Chain of Cytochrome c isoform 1 F88Y, P00044 (P00044 whole entry F88Y, canonical isoform): as the sequence (P00044 whole entry L91A, canonical isoform) above, with F88Y, A91L counted along it
Chain of Cytochrome c isoform 1 F88Y|L91A, P00044 F88Y L91A (P00044 whole entry F88Y/L91A, canonical isoform): as the sequence (P00044 whole entry L91A, canonical isoform) above, with F88Y counted along it

Substance	ddG of mutation (higher = less stable) (25 °C, structure 1YCC)	heat capacity change of unfolding (25 °C, structure 1YCC)	unfolding enthalpy (calorimetric) (25 °C, structure 1YCC)	unfolding free energy (25 °C, structure 1YCC)	unfolding enthalpy (calorimetric) (60 °C, structure 1YCC)	unfolding free energy (60 °C, structure 1YCC)	Tm (structure 1YCC)	heat capacity change of unfolding (structure 1YCC)	unfolding enthalpy (calorimetric) (structure 1YCC)	unfolding enthalpy (van 't Hoff) (structure 1YCC)	heat capacity change of unfolding (25 °C)	unfolding enthalpy (calorimetric) (25 °C)	unfolding free energy (25 °C)	unfolding enthalpy (calorimetric) (60 °C)	Tm	heat capacity change of unfolding	unfolding enthalpy (calorimetric)	unfolding enthalpy (van 't Hoff)
Cytochrome c isoform 1 F88Y, P00044	0.7 kcal/mol	0.58 kcal/mol/K	27 kcal/mol	4.8 kcal/mol	83 kcal/mol	1.01 kcal/mol	55.8 °C	0.58 kcal/mol/K	76 kcal/mol	103 kcal/mol								
Cytochrome c isoform 1 F88Y|L91A, P00044 F88Y L91A					80 kcal/mol		45.6 °C	0.31 kcal/mol/K	57 kcal/mol	92 kcal/mol								
Cytochrome c isoform 1 L91A, P00044	2.8 kcal/mol	0.45 kcal/mol/K	23 kcal/mol	2.7 kcal/mol	79 kcal/mol	2.9 kcal/mol	46.3 °C	0.45 kcal/mol/K	57 kcal/mol	88 kcal/mol								
Cytochrome c isoform 1 wild type, P00044											0.26 kcal/mol/K	26 kcal/mol	5.5 kcal/mol	81 kcal/mol	60 °C	0.26 kcal/mol/K	81 kcal/mol	110 kcal/mol
